Data reported in the supplement of paper PMC9112550, “Optimization of the antimicrobial peptide Bac7 by deep mutational scanning” (BMC Biology, 2022).

System: Escherichia coli TOP10
Experiment: shrunken log2 fold change of peptide-encoding DNA abundance (4.5 h post-induction vs induction); higher = less antimicrobial activity (less host growth inhibition)
Settings: time post-induction: 4.5 h; library: site-saturation at positions 5, 18, 19, 20
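Note: peptides expressed intracellularly from a pBAD plasmid library in pooled LB shake-flask culture, induced with 0.3% L-arabinose, DNA abundance read by NGS, three biological replicates, DESeq2 with apeglm shrinkage.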

| Sequence | shrunken log2 fold change |
| --- | --- |
| RRIRSRPPRLPRPRPRPFGVPRP | -0.448 |
| RRIRWRPPRLPRPRPRPMNDPRP | -0.0845 |
| RRIRGRPPRLPRPRPRPCTTPRP | 0.141 |
| RRIRSRPPRLPRPRPRPSEIPRP | 0.0398 |
| RRIRTRPPRLPRPRPRPKQQPRP | -0.0149 |
| RRIRVRPPRLPRPRPRPEGIPRP | -0.0615 |
| RRIRMRPPRLPRPRPRPNHPPRP | -0.0733 |
| RRIRMRPPRLPRPRPRPPGPPRP | 1.41 |
| RRIRKRPPRLPRPRPRPAACPRP | 0.987 |
| RRIRTRPPRLPRPRPRPFMAPRP | -0.0759 |
| RRIRARPPRLPRPRPRPKWCPRP | 0.321 |
| RRIRARPPRLPRPRPRPLNYPRP | 0.0659 |
| RRIRHRPPRLPRPRPRPMFGPRP | -0.000925 |
| RRIRHRPPRLPRPRPRPATVPRP | 0.00308 |
| RRIRGRPPRLPRPRPRPVIRPRP | 0.177 |
| RRIRMRPPRLPRPRPRPNWVPRP | -0.0816 |
| RRIRMRPPRLPRPRPRPRVCPRP | 0.545 |
| RRIRGRPPRLPRPRPRPRECPRP | 0.562 |
| RRIRPRPPRLPRPRPRPDMHPRP | -0.042 |
| RRIRWRPPRLPRPRPRPCYRPRP | 0.131 |
| RRIRPRPPRLPRPRPRPITVPRP | -0.298 |
| RRIRSRPPRLPRPRPRPCWCPRP | 0.0677 |
| RRIRPRPPRLPRPRPRPVCMPRP | 0.132 |
| RRIRYRPPRLPRPRPRPVQPPRP | 0.219 |
| RRIRCRPPRLPRPRPRPSMEPRP | -0.344 |

| Sequence | shrunken log2 fold change |
| --- | --- |
| RRIRCRPPRLPRPRPRPPEDPRP | 0.754 |
| RRIRPRPPRLPRPRPRPSLDPRP | -0.0512 |
| RRIRIRPPRLPRPRPRPHYFPRP | -0.173 |
| RRIRQRPPRLPRPRPRPHQFPRP | 0.0486 |
| RRIRKRPPRLPRPRPRPEYQPRP | 0.0313 |
| RRIRFRPPRLPRPRPRPTYDPRP | -0.604 |
| RRIRCRPPRLPRPRPRPPLQPRP | 0.228 |
| RRIRTRPPRLPRPRPRPLLSPRP | 0.0198 |
| RRIRWRPPRLPRPRPRPISIPRP | -0.234 |
| RRIRYRPPRLPRPRPRPSNFPRP | -0.368 |
| RRIRERPPRLPRPRPRPNNHPRP | -0.933 |
| RRIRIRPPRLPRPRPRPATYPRP | 0.00351 |
| RRIRGRPPRLPRPRPRPMKFPRP | 0.0112 |
| RRIRLRPPRLPRPRPRPPMDPRP | 0.0462 |
| RRIRWRPPRLPRPRPRPRNRPRP | -0.0206 |
| RRIRTRPPRLPRPRPRPHGPPRP | 0.157 |
| RRIRRRPPRLPRPRPRPDRCPRP | 0.00426 |
| RRIRCRPPRLPRPRPRPPVNPRP | -0.0382 |
| RRIRSRPPRLPRPRPRPFVTPRP | -0.0434 |
| RRIRSRPPRLPRPRPRPEMYPRP | -0.0223 |
| RRIRMRPPRLPRPRPRPPPFPRP | 1.15 |
| RRIRYRPPRLPRPRPRPWYMPRP | -0.838 |
| RRIRWRPPRLPRPRPRPSHHPRP | -0.3 |
| RRIRNRPPRLPRPRPRPRRRPRP | 0.558 |
| RRIRHRPPRLPRPRPRPIMAPRP | -0.383 |

| Sequence | shrunken log2 fold change |
| --- | --- |
| RRIRSRPPRLPRPRPRPCQNPRP | 0.0167 |
| RRIRMRPPRLPRPRPRPPIEPRP | 0.309 |
| RRIRQRPPRLPRPRPRPCAYPRP | -0.0948 |
| RRIRPRPPRLPRPRPRPVNNPRP | -0.525 |
| RRIRCRPPRLPRPRPRPKTLPRP | -0.246 |
| RRIRDRPPRLPRPRPRPILKPRP | 0.0239 |
| RRIRHRPPRLPRPRPRPIVEPRP | -0.133 |
| RRIRYRPPRLPRPRPRPPWTPRP | -0.343 |
| RRIRIRPPRLPRPRPRPFVNPRP | -0.488 |
| RRIRHRPPRLPRPRPRPRIMPRP | -0.577 |
| RRIRERPPRLPRPRPRPYLVPRP | -0.529 |
| RRIRVRPPRLPRPRPRPESQPRP | -0.0489 |
| RRIRMRPPRLPRPRPRPEICPRP | 0.00534 |
| RRIRARPPRLPRPRPRPAPVPRP | 0.627 |
| RRIRSRPPRLPRPRPRPRWVPRP | 0.218 |
| RRIRERPPRLPRPRPRPYSCPRP | 0.0107 |
| RRIRGRPPRLPRPRPRPIDEPRP | 0.433 |
| RRIRMRPPRLPRPRPRPCIMPRP | -0.533 |
| RRIRQRPPRLPRPRPRPIKQPRP | 0.00621 |
| RRIRRRPPRLPRPRPRPALDPRP | 0.586 |
| RRIRLRPPRLPRPRPRPDWWPRP | 0.0919 |
| RRIRIRPPRLPRPRPRPRCYPRP | -0.586 |
| RRIRQRPPRLPRPRPRPMLQPRP | 0.00663 |
| RRIRSRPPRLPRPRPRPPMIPRP | -0.17 |
| RRIRSRPPRLPRPRPRPMMHPRP | -0.121 |

| Sequence | shrunken log2 fold change |
| --- | --- |
| RRIRARPPRLPRPRPRPCCEPRP | 0.512 |
| RRIRIRPPRLPRPRPRPTDKPRP | -0.406 |
| RRIRCRPPRLPRPRPRPNWQPRP | -0.145 |
| RRIRGRPPRLPRPRPRPQGNPRP | 0.236 |
| RRIRDRPPRLPRPRPRPRDQPRP | 0.477 |
| RRIRDRPPRLPRPRPRPDIAPRP | 0.209 |
| RRIRNRPPRLPRPRPRPVARPRP | 0.23 |
| RRIRARPPRLPRPRPRPRANPRP | 0.694 |
| RRIRCRPPRLPRPRPRPVNRPRP | -0.0405 |
| RRIRIRPPRLPRPRPRPMDVPRP | -0.361 |
| RRIRSRPPRLPRPRPRPVGTPRP | -0.0487 |
| RRIRNRPPRLPRPRPRPVLLPRP | -0.0738 |
| RRIRKRPPRLPRPRPRPPNRPRP | 0.151 |
| RRIRSRPPRLPRPRPRPRYWPRP | 0.0181 |
| RRIRWRPPRLPRPRPRPLHDPRP | 0.387 |
| RRIRNRPPRLPRPRPRPTQSPRP | 0.291 |
| RRIRPRPPRLPRPRPRPRQCPRP | 0.126 |
| RRIRSRPPRLPRPRPRPSVTPRP | -0.171 |
| RRIRDRPPRLPRPRPRPADAPRP | 0.196 |
| RRIRPRPPRLPRPRPRPGQEPRP | 0.031 |
| RRIRWRPPRLPRPRPRPEDEPRP | 0.0692 |
| RRIRRRPPRLPRPRPRPNVGPRP | 0.0319 |
| RRIRGRPPRLPRPRPRPIWGPRP | 0.128 |
| RRIRMRPPRLPRPRPRPHKFPRP | 0.0123 |
| RRIRIRPPRLPRPRPRPRELPRP | -0.019 |

| Sequence | shrunken log2 fold change |
| --- | --- |
| RRIRIRPPRLPRPRPRPANVPRP | -0.0188 |
| RRIRARPPRLPRPRPRPGPVPRP | 0.611 |
| RRIRSRPPRLPRPRPRPKACPRP | -0.253 |
| RRIRTRPPRLPRPRPRPYLHPRP | -0.367 |
| RRIRPRPPRLPRPRPRPHGRPRP | -0.0223 |
| RRIRWRPPRLPRPRPRPHMLPRP | -0.954 |
| RRIRHRPPRLPRPRPRPNWPPRP | 0.234 |
| RRIRIRPPRLPRPRPRPIKKPRP | -0.0505 |
| RRIRCRPPRLPRPRPRPNVSPRP | 0.0773 |
| RRIRCRPPRLPRPRPRPSIDPRP | -0.505 |
| RRIRERPPRLPRPRPRPQWDPRP | 0.0698 |
| RRIRWRPPRLPRPRPRPYEAPRP | -0.569 |
| RRIRIRPPRLPRPRPRPMVKPRP | -0.0157 |
| RRIRQRPPRLPRPRPRPIFCPRP | 0.276 |
| RRIRMRPPRLPRPRPRPVVFPRP | 2.6 |
| RRIRCRPPRLPRPRPRPHWNPRP | -0.551 |
| RRIRPRPPRLPRPRPRPNDEPRP | 0.0306 |
| RRIRSRPPRLPRPRPRPCPVPRP | -0.0785 |
| RRIRCRPPRLPRPRPRPDPDPRP | -0.141 |
| RRIRTRPPRLPRPRPRPMPEPRP | 0.0253 |
| RRIRLRPPRLPRPRPRPICLPRP | 0.193 |
| RRIRGRPPRLPRPRPRPNFHPRP | 0.611 |
| RRIRQRPPRLPRPRPRPCNGPRP | -0.0134 |
| RRIRQRPPRLPRPRPRPGPFPRP | 0.0672 |
| RRIRVRPPRLPRPRPRPCPVPRP | -0.0687 |

| Sequence | shrunken log2 fold change |
| --- | --- |
| RRIRMRPPRLPRPRPRPRGIPRP | 0.0677 |
| RRIRTRPPRLPRPRPRPEAFPRP | 0.0195 |
| RRIRSRPPRLPRPRPRPNISPRP | 0.00233 |
| RRIRTRPPRLPRPRPRPETIPRP | -0.0605 |
| RRIRGRPPRLPRPRPRPFAHPRP | 0.162 |
| RRIRARPPRLPRPRPRPEPMPRP | 0.44 |
| RRIRQRPPRLPRPRPRPQIAPRP | -0.133 |
| RRIRARPPRLPRPRPRPGTLPRP | 0.22 |
| RRIRPRPPRLPRPRPRPTCTPRP | 0.104 |
| RRIRVRPPRLPRPRPRPRDQPRP | -0.0604 |
| RRIRTRPPRLPRPRPRPPVRPRP | 0.558 |
| RRIRDRPPRLPRPRPRPVLKPRP | 0.0359 |
| RRIRARPPRLPRPRPRPWMTPRP | -0.141 |
| RRIRNRPPRLPRPRPRPGPTPRP | 0.3 |
| RRIRDRPPRLPRPRPRPYYQPRP | -1.03 |
| RRIRARPPRLPRPRPRPEQSPRP | 0.119 |
| RRIRKRPPRLPRPRPRPVPWPRP | 0.572 |
| RRIRDRPPRLPRPRPRPTYTPRP | 0.319 |
| RRIRKRPPRLPRPRPRPEVRPRP | 1.86 |
| RRIRLRPPRLPRPRPRPTWCPRP | 0.107 |
| RRIRMRPPRLPRPRPRPMTNPRP | 0.165 |
| RRIRWRPPRLPRPRPRPTIQPRP | 0.0488 |
| RRIRGRPPRLPRPRPRPCIDPRP | 0.877 |
| RRIRARPPRLPRPRPRPQKGPRP | 0.0244 |
| RRIRHRPPRLPRPRPRPFWKPRP | -0.0724 |
